Patent publication US20100056445A1, “ADIPONECTIN FOR THE TREATMENT AND DIAGNOSIS OF ALBUMINURIA” (THOMAS JEFFERSON UNIVERSITY, priority 2006, published 2010)

System: Nox4
Experiment: Nox4 protein in cultured podocytes (immunoblot, confocal)
Format: cell-based, mouse
Conditions: adiponectin for 16 h

B1: adiponectin: 30 kDa adipocyte-secreted protein; in the first series of tests the recombinant globular domain was used, later gAd or fAd (protein, UniProt Q15848 19-244, looked up)
Adiponectin: ETTTQGPGVLLPLPKGACTGWMAGIPGHPGHNGAPGRDGRDGTPGEKGEKGDPGLIGPKGDIGETGVPGAEGPRGFPGIQGRKGEPGEGAYVYRSAFSVGLETYVTIPNMPIRFTKIFYNQQNHYDGSTGKFHCNIPGLYYFAYHITVYMKDVKVSLFKKDKAMLFTYDQYQENNVDQASGSVLLHLEVGDQVWLQVYGEGERNGLYADNDNDSTFTGFLLYHDTN
  Podocyte Nox4 protein: sufficient to suppress podocyte Nox4
